Results on four variants are retold here after PMC7363588, “Mapping of the FGF14:Nav1.6 complex interface reveals FLPK as a functionally active peptide modulating excitability” (Physiological Reports, 2020).

B1: CLuc-FGF14 [human] / CD4-Nav1.6 C-tail-NLuc [human] (parent)
chain 1: MVKPVPLFRRTDFKLLLCNHKDLFFLRVSKLLDCFSPKSMWFLWNIFSKGTHMLQCLCGKSLKKNKNPTDPQLKGIVTRLYCRQGYYLQMHPDGALDGTKDDSTNSTLFNLIPVGLRVVAIQGVKTGLYIAMNGEGYLYPSELFTPECKFKESVFENYYVIYSSMLYRQQESGRAWFLGLNKEGQAMKGNRVKKTKPAAHFLPKPLEVAMYREPSLHDVGETVPKPGVTPSKSTSASAIMNGGKPVNKSKTT
chain 2: IVVNMYIAIILENFSVATEESADPLSEDDFETFYEIWEKFDPDATQFIEYCKLADFADALEHPLRVPKPNTIELIAMDLPMVSGDRIHCLDILFAFTKRVLGDSGELDILRQQMEERFVASNPSKVSYEPITTTLRRKQEEVSAVVLQRAYRGHLARRGFICKKTTSNKLENGGTHREKKESTPSTASLPSYDSVTKPEKEKQQRAEEGRRERAKRQKEVRESKC

Variants of B1 are the subject of the test. The test is described as follows: split-luciferase complementation assay (LCA) in HEK293 cells. The settings on record: with CD4-Nav1.6 C-tail-NLuc [human], DMSO vehicle control of the same pair = 100, read off a plot.

As for chain 1 Y158A V160A, the screen value (% Luminescence (RLU)) (EYYV peptide 50 µM present) worked out at 100, the screen value (% Luminescence (RLU)) (FLPK peptide 50 µM present) was 99 and the screen value (% Luminescence (RLU)) (PLEV peptide 50 µM present) came out at 110.

Regarding chain 1 Y158N V160N, the screen value (% Luminescence (RLU)) (EYYV peptide 50 µM present) worked out at 79, the screen value (% Luminescence (RLU)) (FLPK peptide 50 µM present) is 100 and the screen value (% Luminescence (RLU)) (PLEV peptide 50 µM present) turned out to be 72.

With chain 1 Y158A, the screen value (% Luminescence (RLU)) by setting is: (EYYV peptide 50 µM present) 100; (FLPK peptide 50 µM present) 87; (PLEV peptide 50 µM present) 110.

As for chain 1 V160A, the screen value (% Luminescence (RLU)) reads like this: (EYYV peptide 50 µM present) 93; (FLPK peptide 50 µM present) 91; (PLEV peptide 50 µM present) 94.
